Measured values from patent publication US20160187355A1 (AUGUSTA UNIVERSITY RESEARCH INSTITUTE, published 2016).
One block for each molecule: values may come before it.

What was measured:
LRP4N-Myc (rat) [1] = target: LRP4N-Myc (rat) (UniProt Q9QYP1); assay: solid phase binding of MuSK-AP to coated LRP4, Scatchard plot
LRP4-Myc = target: T1, LRP4-Myc (UniProt Q9QYP1 21-1905); assay: solid phase binding: purified LRP4-Myc (name as in the legend) coated on plate, bound AP activity with pNPP
T1 construct: whole, on cells; also called Myc-tagged full length LRP4; not shown: Myc tag of pcDNA3.1-MycHis; His tag of pcDNA3.1-MycHis
T1 sequence (Q9QYP1 21-1905): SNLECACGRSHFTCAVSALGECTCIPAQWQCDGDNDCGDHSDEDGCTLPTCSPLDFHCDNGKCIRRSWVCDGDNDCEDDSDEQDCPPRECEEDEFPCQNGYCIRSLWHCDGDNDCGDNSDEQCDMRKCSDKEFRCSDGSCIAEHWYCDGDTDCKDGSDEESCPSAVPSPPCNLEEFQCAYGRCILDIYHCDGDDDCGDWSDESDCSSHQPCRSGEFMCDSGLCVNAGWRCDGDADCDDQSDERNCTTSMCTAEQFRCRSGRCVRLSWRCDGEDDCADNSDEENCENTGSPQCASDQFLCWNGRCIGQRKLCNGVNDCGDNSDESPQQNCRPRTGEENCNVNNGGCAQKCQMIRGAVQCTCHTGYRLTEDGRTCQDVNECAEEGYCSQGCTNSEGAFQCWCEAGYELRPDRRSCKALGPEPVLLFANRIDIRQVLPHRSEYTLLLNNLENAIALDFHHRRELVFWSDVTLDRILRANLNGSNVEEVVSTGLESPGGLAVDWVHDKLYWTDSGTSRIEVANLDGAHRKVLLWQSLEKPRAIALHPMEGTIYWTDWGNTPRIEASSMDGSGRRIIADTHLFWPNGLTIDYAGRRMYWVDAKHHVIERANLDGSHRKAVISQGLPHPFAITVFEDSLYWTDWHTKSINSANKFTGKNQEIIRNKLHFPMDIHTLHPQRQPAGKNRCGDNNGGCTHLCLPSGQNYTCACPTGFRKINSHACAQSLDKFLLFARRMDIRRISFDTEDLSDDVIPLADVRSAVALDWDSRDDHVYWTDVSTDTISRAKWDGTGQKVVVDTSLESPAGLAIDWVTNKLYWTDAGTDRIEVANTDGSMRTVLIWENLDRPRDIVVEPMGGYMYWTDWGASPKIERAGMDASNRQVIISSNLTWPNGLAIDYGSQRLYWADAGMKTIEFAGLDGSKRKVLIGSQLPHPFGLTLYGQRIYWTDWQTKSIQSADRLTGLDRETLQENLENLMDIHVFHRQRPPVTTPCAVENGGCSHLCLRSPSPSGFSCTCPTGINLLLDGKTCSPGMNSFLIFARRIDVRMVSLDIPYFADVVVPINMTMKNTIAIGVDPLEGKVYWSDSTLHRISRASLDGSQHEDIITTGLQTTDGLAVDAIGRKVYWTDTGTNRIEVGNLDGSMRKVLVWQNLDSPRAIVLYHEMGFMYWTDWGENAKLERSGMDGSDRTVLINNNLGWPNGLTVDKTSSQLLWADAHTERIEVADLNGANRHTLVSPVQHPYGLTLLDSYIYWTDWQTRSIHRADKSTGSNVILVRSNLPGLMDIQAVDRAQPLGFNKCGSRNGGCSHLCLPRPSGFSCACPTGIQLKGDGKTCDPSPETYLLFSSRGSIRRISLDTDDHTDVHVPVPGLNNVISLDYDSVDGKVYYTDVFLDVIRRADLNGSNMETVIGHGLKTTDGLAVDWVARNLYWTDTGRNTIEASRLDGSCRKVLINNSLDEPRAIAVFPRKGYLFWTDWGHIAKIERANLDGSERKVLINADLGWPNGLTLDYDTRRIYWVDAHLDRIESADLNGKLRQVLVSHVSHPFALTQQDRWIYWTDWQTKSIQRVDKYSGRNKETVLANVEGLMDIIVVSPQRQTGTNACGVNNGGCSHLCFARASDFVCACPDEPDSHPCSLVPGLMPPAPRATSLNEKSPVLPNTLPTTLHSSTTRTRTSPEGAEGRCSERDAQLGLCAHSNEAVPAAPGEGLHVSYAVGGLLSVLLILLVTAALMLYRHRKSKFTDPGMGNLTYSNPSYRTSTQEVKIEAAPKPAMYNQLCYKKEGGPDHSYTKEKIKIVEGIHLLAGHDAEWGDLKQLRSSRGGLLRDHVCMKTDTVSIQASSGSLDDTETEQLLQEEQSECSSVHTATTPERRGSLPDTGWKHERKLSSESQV
Description: FIG. 6A-G. Direct interaction between LRP4 and MuSK. […] Flag-MuSKect immobilized on beads were incubated with condition media of cells expressing the extracellular domains of LRP4 (LRP4N-Myc) or the empty vector (control) in the presence or absence of neuronal agrin. Precipitated LRP4 was analyzed by immunoblot with anti-Myc antibody. […] FIG. 6B is a quantitative analysis of LRP4N-Myc and Flag-MuSK. Data shown were mean±SEM, n=3; *, p <0.05 in comparison with the no-agrin group. […] Purified LRP4-Myc was coated on Maxi-Sorp Immuno Plates, which were incubated with MuSK-AP. Bound AP was measured with pNPP as substrate. Data shown were mean±SEM. n=4. FIG. 6D is a Scatchard plot of data in FIG. 6C. Y axis represents the ratio of bound to free MuSK-AP whereas X axis represents the concentration of bound MuSK-AP. […] Experiments were done as in FIG. 6A except condition medium of cells expressing the extracellular domain of LRP6 was used. […] HEK293 cells were transfected with LRP4 and/or Flag-MuSK. Lysates were incubated with anti-Flag antibody, and resulting immunocomplex was analyzed for LRP4 and Flag. Lysates were also probed to indicate equal amounts of indicated proteins. […]
Solid phase binding assay. […] Coated wells were incubated with purified AP fusion proteins and the AP activity was measured using pNPP as substrate.

LRP4N-Myc (rat) [2] = target: LRP4N-Myc (rat) (UniProt Q9QYP1); assay: solid phase binding of nAgrin-AP to coated LRP4, Scatchard plot
LRP4N-Myc (rat) [3] = target: LRP4N-Myc (rat) (UniProt Q9QYP1); assay: solid phase binding: purified LRP4 (legend: LRP4-Myc; paragraph 111: LRP4N-Myc) coated on plate, bound AP activity with pNPP
[4] = target: T2, full length LRP4 (pcDNA-LRP4) (UniProt Q9QYP1 21-1905, limits assumed); assay: intact cell binding on transfected C2C12 myoblasts, BCIP/NBT staining quantified
T2 construct: whole, on cells; Expressed in transfected C2C12 myoblasts or HEK293 cells; also called exogenous LRP4
T2 sequence (Q9QYP1 21-1905 limits assumed): as the sequence (Q9QYP1 21-1905) above
Description: FIG. 4A-G. Expression of LRP4 enables binding activity for neuronal agrin and MuSK signaling. […] C2C12 myoblasts were transfected by empty vector (control), LRP4 and/or Flag-MuSK. 36 hr after transfection, myoblasts were incubated with AP alone, mAgrin-AP or nAgrin-AP for 90 min at room temperature. Endogenous AP was inactivated by heating and bound AP was visualized in cells by staining with BCIP/NBT. FIG. 4B is a quantification of data in FIG. 4A. Data shown were mean±SEM. n=6; *, P<0.05 in comparison with mAgrin-AP of the same group or nAgrin-AP in the control group. FIG. 4C and FIG. 4D show nAgrin-AP bound to HEK293 cells expressing LRP4, but not those expressing LRP5. HEK293 cells were transfected without (control) or with LRP4-Myc (FIG. 4C) or LRP5-Myc (FIG. 4D). 36 hr after transfection, transfected cells were incubated with nAgrin-AP or mAgrin-AP. In some experiments, control cells were incubated with nAgrin-AP. After heat inactivation of endogenous AP, lysates were assayed for transfected AP using pNPP as substrate. […] In FIG. 4E, lysates were incubated with anti-Flag antibody, and resulting immunocomplex was analyzed with anti-phosphotyrosine antibody 4G10. […] FIG. 4G is a quantitative analysis of data in FIG. 4E and FIG. 4F. MuSK and Abl phosphorylation was quantified by using the ImageJ software. […]

Chain of LRP4N-Myc (rat) (Q9QYP1 21-1723): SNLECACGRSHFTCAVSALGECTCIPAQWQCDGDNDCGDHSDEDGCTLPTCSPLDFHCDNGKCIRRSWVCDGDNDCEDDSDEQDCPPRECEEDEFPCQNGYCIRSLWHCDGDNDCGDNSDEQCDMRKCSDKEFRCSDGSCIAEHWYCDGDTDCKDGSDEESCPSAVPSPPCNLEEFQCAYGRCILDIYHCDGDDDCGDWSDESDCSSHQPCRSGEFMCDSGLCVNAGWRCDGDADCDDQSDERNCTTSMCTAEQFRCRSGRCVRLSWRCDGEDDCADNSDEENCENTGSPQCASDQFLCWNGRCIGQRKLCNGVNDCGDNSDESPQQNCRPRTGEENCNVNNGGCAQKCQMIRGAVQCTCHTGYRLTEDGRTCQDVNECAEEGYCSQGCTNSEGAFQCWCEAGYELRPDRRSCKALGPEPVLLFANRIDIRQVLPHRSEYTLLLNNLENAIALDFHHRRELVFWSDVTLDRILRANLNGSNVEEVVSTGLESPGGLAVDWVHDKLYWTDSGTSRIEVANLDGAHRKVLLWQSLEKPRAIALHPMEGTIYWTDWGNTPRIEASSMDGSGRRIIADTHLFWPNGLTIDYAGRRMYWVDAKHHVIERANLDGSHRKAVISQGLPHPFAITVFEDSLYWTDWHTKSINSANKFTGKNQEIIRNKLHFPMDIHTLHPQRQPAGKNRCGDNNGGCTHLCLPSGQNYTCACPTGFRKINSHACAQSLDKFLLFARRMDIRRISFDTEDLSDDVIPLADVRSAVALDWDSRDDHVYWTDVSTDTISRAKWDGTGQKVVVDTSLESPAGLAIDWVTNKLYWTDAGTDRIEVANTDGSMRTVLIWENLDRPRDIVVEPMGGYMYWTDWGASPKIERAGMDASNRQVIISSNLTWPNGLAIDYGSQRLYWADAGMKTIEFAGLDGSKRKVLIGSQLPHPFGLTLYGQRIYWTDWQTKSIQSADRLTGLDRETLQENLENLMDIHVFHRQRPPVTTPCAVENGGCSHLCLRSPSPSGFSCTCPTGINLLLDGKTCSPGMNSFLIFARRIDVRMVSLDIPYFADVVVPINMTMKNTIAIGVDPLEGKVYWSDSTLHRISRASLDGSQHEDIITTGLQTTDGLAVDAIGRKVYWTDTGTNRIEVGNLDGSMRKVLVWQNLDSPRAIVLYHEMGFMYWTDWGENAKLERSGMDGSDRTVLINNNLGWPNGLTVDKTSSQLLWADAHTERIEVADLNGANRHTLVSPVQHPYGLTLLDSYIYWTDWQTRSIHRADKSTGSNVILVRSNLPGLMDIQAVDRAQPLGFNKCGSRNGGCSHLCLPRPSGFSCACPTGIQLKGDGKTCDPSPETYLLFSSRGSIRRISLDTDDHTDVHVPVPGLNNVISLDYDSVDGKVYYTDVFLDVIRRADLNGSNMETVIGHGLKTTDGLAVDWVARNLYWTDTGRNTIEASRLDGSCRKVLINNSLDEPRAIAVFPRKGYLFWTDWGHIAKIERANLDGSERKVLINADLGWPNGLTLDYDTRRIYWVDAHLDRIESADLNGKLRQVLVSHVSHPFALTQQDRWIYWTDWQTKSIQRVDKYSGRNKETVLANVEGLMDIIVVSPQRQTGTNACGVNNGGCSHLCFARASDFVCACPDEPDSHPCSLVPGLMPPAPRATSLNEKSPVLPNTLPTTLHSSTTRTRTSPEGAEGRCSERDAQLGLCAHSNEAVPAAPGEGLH

Kd (LRP4N-Myc (rat) [1]): 0.45 nM
EC50 (read off the curve) (LRP4-Myc): 0.3 nM
Molecule: MuSK-AP (from UniProt P05187 23-511) (receptor)

Kd (LRP4N-Myc (rat) [2]): 0.5 nM
EC50 (read off the curve) (LRP4N-Myc (rat) [3]): 0.4 nM
Molecule: nAgrin-AP (from UniProt P25304 1145-1940) (ligand)

binding result (LRP4-Myc): no binding (tested: 1000 nM)
B1: AP alone (enzyme, human, UniProt P05187 23-511, looked up)
chain: IIPVEEENPDFWNREAAEALGAAKKLQPAQTAAKNLIIFLGDGMGVSTVTAARILKGQKKDKLGPEIPLAMDRFPYVALSKTYNVDKHVPDSGATATAYLCGVKGNFQTIGLSAAARFNQCNTTRGNEVISVMNRAKKAGKSVGVVTTTRVQHASPAGTYAHTVNRNWYSDADVPASARQEGCQDIATQLISNMDIDVILGGGRKYMFRMGTPDPEYPDDYSQGGTRLDGKNLVQEWLAKRQGARYVWNRTELMQASLDPSVTHLMGLFEPGDMKYEIHRDSTLDPSLMEMTEAALRLLSRNPRGFFLFVEGGRIDHGHHESRAYRALTETIMFDDAIERAGQLTSEEDTLSLVTADHSHVFSFGGYPLRGSSIFGLAPGKARDRKAYTVLLYGNGPGYVLKDGARPDVTESESGSPEYRQQSAVPLDEETHAGEDVAVFARGPQAHLVHGVQEQTFIAHVMAFAACLEPYTACDLAPPAGTTDAAHPG
notes: Control protein; also called control (empty pAPtag-5)
binding result [4]: no binding (tested: 5 nM (not printed on the sheet))
